These results are taken from publication PMC9270243.

Data set [1] concerns the target Csy complex (P. aeruginosa) (UniProt Q02ML9). The data set is described as follows: MST.
Another data set has as its target Cas2/3 (P. aeruginosa) (UniProt Q02ML8). The data set is described as follows: SPR. (In general: Surface plasmon resonance follows binding to a sensor surface in real time, without labels.)
The target in data set [2] is Csy complex (Cas8f, Cas5f, Cas7f, Cas6f, crRNA);Cas2/3 (Pseudomonas aeruginosa;Pseudomonas …, UniProt Q02ML9;Q02MM0;Q02MM1;Q02MM2;Q02ML8 1-434;1-327;1-342;1-187;1-1076, |). The data set is described as follows: EMSA. A general note: Mobility shift assays separate free from complexed probe on a gel.
Data set [3] addresses T1, Csy complex (Cas8f, Cas5f, Cas7f, Cas6f, crRNA) (Pseudomonas aeruginosa, UniProt Q02ML9;Q02MM0;Q02MM1;Q02MM2 1-434;1-327;1-342;1-187).
T1 sequence 1: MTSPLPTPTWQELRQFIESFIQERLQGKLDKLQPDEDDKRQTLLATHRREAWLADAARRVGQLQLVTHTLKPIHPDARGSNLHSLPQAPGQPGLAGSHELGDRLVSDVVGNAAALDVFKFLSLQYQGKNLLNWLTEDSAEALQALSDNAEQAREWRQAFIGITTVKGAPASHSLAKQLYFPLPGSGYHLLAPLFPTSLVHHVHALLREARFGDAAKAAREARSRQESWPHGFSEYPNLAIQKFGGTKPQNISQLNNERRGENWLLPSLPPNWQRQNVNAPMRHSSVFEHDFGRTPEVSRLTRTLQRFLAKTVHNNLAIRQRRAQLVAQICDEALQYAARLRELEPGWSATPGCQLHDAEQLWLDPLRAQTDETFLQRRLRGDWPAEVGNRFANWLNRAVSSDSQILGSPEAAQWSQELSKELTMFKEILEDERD
T1 sequence 2: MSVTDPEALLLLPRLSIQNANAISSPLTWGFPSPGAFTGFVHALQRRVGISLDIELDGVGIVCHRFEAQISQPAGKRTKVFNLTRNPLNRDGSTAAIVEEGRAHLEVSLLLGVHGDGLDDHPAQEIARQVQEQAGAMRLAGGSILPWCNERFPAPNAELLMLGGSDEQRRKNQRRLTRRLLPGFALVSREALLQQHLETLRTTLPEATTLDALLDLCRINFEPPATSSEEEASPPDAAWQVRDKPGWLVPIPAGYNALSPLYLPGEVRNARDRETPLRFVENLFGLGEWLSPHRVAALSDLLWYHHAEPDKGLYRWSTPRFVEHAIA
T1 sequence 3: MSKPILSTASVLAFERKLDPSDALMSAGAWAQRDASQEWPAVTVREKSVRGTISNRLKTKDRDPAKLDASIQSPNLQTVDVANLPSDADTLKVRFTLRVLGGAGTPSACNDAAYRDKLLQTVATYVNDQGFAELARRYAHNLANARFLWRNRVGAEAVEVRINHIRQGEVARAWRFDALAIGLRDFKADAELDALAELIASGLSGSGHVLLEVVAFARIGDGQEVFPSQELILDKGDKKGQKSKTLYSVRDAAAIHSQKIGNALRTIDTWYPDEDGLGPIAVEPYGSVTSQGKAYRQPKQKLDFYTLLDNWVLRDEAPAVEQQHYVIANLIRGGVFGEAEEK
T1 sequence 4: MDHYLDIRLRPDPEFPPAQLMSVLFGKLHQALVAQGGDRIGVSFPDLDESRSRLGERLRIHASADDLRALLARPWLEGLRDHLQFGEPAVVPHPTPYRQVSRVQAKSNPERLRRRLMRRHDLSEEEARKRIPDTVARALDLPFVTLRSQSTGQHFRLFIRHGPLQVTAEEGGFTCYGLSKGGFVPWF
The data set is described as follows: EMSA.

A further data set deals with T2, Cas2/3 (UniProt Q02ML8 1-1076).
T2 sequence: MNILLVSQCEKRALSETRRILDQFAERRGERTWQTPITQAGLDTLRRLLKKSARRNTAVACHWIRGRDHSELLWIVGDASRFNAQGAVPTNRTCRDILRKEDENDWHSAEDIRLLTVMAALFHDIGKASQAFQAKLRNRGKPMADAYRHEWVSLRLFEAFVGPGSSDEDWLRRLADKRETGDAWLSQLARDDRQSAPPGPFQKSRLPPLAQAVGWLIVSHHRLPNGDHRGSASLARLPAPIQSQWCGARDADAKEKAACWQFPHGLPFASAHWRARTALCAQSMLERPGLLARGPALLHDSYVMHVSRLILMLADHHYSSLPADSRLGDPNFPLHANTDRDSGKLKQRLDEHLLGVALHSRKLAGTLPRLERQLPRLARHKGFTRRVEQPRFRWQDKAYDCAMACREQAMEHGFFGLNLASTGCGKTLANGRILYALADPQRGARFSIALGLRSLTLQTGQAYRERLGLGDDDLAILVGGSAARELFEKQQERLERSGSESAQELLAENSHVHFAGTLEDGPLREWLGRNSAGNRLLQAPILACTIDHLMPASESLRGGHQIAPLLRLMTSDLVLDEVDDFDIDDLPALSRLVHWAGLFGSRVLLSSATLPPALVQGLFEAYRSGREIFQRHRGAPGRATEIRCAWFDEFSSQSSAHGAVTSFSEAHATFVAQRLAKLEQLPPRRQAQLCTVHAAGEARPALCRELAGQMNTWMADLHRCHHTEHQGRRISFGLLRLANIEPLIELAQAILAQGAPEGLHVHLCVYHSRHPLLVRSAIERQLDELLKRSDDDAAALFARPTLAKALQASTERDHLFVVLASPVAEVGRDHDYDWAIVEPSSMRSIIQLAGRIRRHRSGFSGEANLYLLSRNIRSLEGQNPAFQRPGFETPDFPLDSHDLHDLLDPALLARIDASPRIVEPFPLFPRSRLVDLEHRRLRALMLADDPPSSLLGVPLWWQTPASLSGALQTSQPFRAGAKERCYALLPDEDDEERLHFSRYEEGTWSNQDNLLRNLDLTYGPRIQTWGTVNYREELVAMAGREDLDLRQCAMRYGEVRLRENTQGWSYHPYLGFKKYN
The data set is described as follows: EMSA.

For another data set, the target named is AcrIF23 (P. aeruginosa). The data set is described as follows: MST.
The target of another data set is AcrIF3 (P. aeruginosa). The data set is described as follows: MST.

One may read the Kd as the concentration at which binding is half-saturated. Read a low Kd as a tighter complex.

In data set [1], AcrIF1 (natural protein) registered a Kd of 420 nM.
In the case of AcrIF23 (natural protein), the Kd with Cas2/3 (P. aeruginosa) came out at 3360 nM. That is a single-digit micromolar value.

B1: 54 bp target dsDNA (dsDNA)
DNA 1: GGAAGCCATCCAGGTAGACGCGGACATCAAGCCCGCCGTGAAGGTGCAGCTGCT
DNA 2: AGCAGCTGCACCTTCACGGCGGGCTTGATGTCCGCGTCTACCTGGATGGCTTCC
Consider B1, for which the binding result in data set [2] and in data set [3] was “binds” each time.

B2: 54 nt ssDNA (ssDNA)
DNA: B1 DNA 1
In the case of B2, the binding result with Cas2/3 is “binds”.

B3: Cas2/3 (enzyme)
chain: T2 sequence
For B3, the Kd with AcrIF23 (P. aeruginosa) amounted to 1200 nM; in the data set with AcrIF3 (P. aeruginosa), 31 nM.
